Measurements as given in patent US20100184108.

Target: T1, 15-residue histone H3 trimethylated Lys9 (H3K9me3) substrate peptide, H2N-ARTKQTARK(tri-methyl)STGGKA-amide
T1 chain: ARTKQTARKSTGGKA

B1: catalytic domain, residues 1-350, of the human histone demethylase JMJD2A (protein)
chain: MASESETLNPSARIMTFYPTMEEFRNFSRYIAYIESQGAHRAGLAKVVPPKEWKPRASYDDIDDLVIPAPIQQLVTGQSGLFTQYNIQKKAMTVREFRKIANSDKYCTPRYSEFEELERKYWKNLTFNPPIYGADVNGTLYEKHVDEWNIGRLRTILDLVEKESGITIEGVNTPYLYFGMWKTSFAWHTEDMDLYSINYLHFGEPKSWYSVPPEHGKRLERLAKGFFPGSAQSCEAFLRHKMTLISPLMLKKYGIPFDKVTQEAGEFMITFPYGYHAGFNHGFNCAESTNFATRRWIEYGKQAVLCSCRKDMVKISMDVFVRKFQPERYKLWKAGKDNTVIDHTLPTPEA
- fluorescence of the formaldehyde-Luminos reagent adduct (demethylase activity, positive control assay): 57,000±400 relative fluorescence units
- fold reduction in the fluorescence signal when a component is omitted: Omission of 2-OG, the H3K9me3 peptide, or JMJD2A results in a ˜30-fold reduction in the fluorescence signal
- signal to background ratio (positive control reactions against negative control assays): signal to background ratio of 20:1 or greater
